System: HLA-A2.1
Experiment: Surface expression of co-transfected HLA-A2.1 constructs on HeLa cells, flow cytometry
Type: cell-based, human
Method: Flow cytometry. Cells were removed from tissue culture dishes with 0.05% Trypsin-EDTA (Invitrogen), washed with ice-cold PBS, and incubated with appropriate antibody for 30 minutes at 4° C. The cells were washed with ice-cold PBS and either resuspended in ice-cold PBS or incubated with PE-conjugated anti-mouse secondary antibody (DAKO) and washed again before analysis with a BD Biosciences (San Jose, Calif.) FACScalibur flow cytometer.
The ability to downregulate MHC I is common to KSHV-K3, KSHV-K5, MHV68-K3 and MV-M153R (Coscoy and Ganem, 2000, supra; Guerin et al., 2002, supra; Ishido et al., 2000b supra; Stevenson et al., 2000, supra). Additional substrates are ICAM-1 and B7.2 (but not B7.1) for KSHV-K5, as well as CD95 and CD4 for M153R (Coscoy and Ganem, 2001, supra; Guerin et al., 2002, supra; Ishido et al., 2000a, supra; Mansouri et al., 2003, supra). Since only low copy numbers were detected in HeLa cells for transcripts corresponding to each of the MARCH-proteins (FIG. 7C, and data not shown), HeLa cells were transfected with expression plasmids for MARCH-I, II, III, IV, V and VIII. Surface expression of selected glycoproteins was monitored upon transfection. The following known substrates for viral K3-family members were tested: Fas (CD95) and HLA class I (MHC I), both of which are endogenously expressed in HeLa cells, as well as transfected HLA-A2.1 or CD4. […] Surface expression of the respective markers was analyzed by flow cytometry. GFP was used to identify transfected cells.
The most likely targets for ubiquitination on transmembrane glycoproteins are lysines in the cytoplasmic tail. To examine the role of lysines for MHC I and CD4 downregulation by MARCH-IV, a panel of constructs derived from the human MHC I molecule HLA-A2.1 and a lysine-deleted version of CD4 (Mansouri et al., 2003, supra) were used. In addition to MARCH-IV, MARCH-VIII was included in this analysis since it reduced HLA-A2.1 surface expression (FIG. 10A). […] To rule out the possibility that these mutations changed the target molecules in such a way that they are no longer recognized by MARCH-IV or VIII, a lysine residue into a HA-tag at the carboxyterminal end of HLA-A2.1 was introduced.

B1: MARCH-IV: human membrane-associated RING-CH ubiquitin ligase, SEQ ID NOS:45 and 57; construct used lacks the first 63 amino-acids (protein)
chain: WYCYGLCAPAPQMLRHQGLLKCRCRMLFNDLKVFLLRRPPQAPLPMHGDPQPPGLAANNTLPALGAGGWAGWRGPREVVGREPPPVPPPPPLPPSSVEDDWGGPATEPPASLLSSASSDDFCKEKTEDRYSLGSSLDSGMRTPLCRICFQGPEQGELLSPCRCDGSVKCTHQPCLIKWISERGCWSCELCYYKYHVIAISTKNPLQWQAISLTVIEKVQVAAAILGSLFLIASISWLIWSTFSPSARWQRQDLLFQICYGMYGFMDVVCIGLIIHEGPSVYRIFKRWQAVNQQWKVLNYDKTKDLEDQKAGGRTNPRTSSSTQANIPSSEEETAGTPAPEQGPAQAAGHPSGPLSHHHCAYTILHILSHLRPHEQRSPPGSSRELVMRVTTV
downregulation of HLA-A2.1 with a lysine re-introduced into the C-terminal HA-tag (HeLa cells): restored downregulation | surface expression of transfected HLA-A2.1 (HeLa cells co-transfected with HLA-A2.1 and MARCH plasmid): reduced the surface expression | downregulation of HLA-A2.1 with lysines removed from the tail (HeLa cells, lysine-less HLA-A2.1 construct): resistant

Reference: patent US20050079613A1, “Downregulation of cell surface glycoproteins by a family of human ubiquitin ligases” (Oregon Health & Science University, priority 2002, published 2005)
